Substitutions are numbered along the chain they refer to.

B1: F2.70.2 (antibody, human IgG1, lambda, V domains shown)
VH: EVQLVESGGGLVKPGGSLKLSCAASGFTFSDYGMNWFRQAPEKGLEWVAYISRGSHTIYYADTVKGRFTISRDNAKNTLFLQMTSLRSNDTAMYYCVRMAGYYAMDYWGQGTSVTVSS
VL: QLVLTQSSSASFSLGASAKLTCTLSSQHSSYIIEWYQQQPLKPPKYVMELKKDGSHSTGDGIPDRFSGSSSGADRYLSISNIQPEDEAIYICGVGDTIKEQFVYVFGGGTKVTVLG
notes: Human-murine chimeric IgG1, lambda
B2: F2.180.16 (antibody, human IgG1, lambda, V domains shown)
VH: EVKLVESGGGLVLPGGSLKISCAASGFTFSDYYMYWIRQTPDKRLEWVAYISNTGYSTFYPDSVKGRFTVSRDNAKNTLYLQMSRLQSEDTAMYYCARHGILYAMDYWGQGTSVTVSS
VL: B1 VL with L2P, H28Y, S30T, I32T, E34G, K52H, H56R, S57H, I89T, V103M
notes: as for B1
B3: F2.104.10 (antibody, human IgG1, lambda, V domains shown)
VH: B1 VH with L11F, K76E, V114L
VL: B1 VL with L50V, P84S
notes: as for B1
B4: F1.257.3 (antibody, human IgG1, kappa, V domains shown)
VH: QVQLQQSGPELARPGASVKLSCKASGYTFTSYGISWVKQRTGQDLEWIGEIYPKLGTTYYNEKFKDKATLTTDRSSSTAYMALRSLTSEDSAVYFCACPHYYATRGGDYWGQGTTLTVSS
VL: EIVLTQSPATLSVTPGDSVTFSCRASQSISNHLHWYQQKSHESPRLLIRYASQSISGIPSRFSGSGSGTDFTLSLSSVETEDFGVYFCQQSHSWPYTFGGGTKLEIAR
notes: Human-murine chimeric IgG1, kappa
B5: F1.60.9 (antibody, human IgG1, kappa, V domains shown)
VH: QVQLKESGPGLVAPSQSLSITCTVSGLSLNNYGVSWVRQPPGKGLEWLGVIWGDGSTNYHSALISRLSISKDNSKSQVFLKLNSLHTDDTATYYCAINWGDYWGQGTTLIVSS
VL: DIKMTQSPSSMNASLGERVTITCKASQDINSYLSWFQQKPGKSPKILIYRANRLIDGVPSRFSGSGSGQDYSLTISSLEYEDMGIYYCLQYGVFPLTFGAGTKLELKR
notes: as for B4
B6: F2.343.16 (antibody, human IgG1, lambda, V domains shown)
VH: QVQLKQSGPGLVQPSQSLSITCTVSGFSLTGYGVQWVRQSPGKGLEWLGVIWGGGGTDYNAAFISRLNIIKDNSKSQVFFKMNSLQADDTAIYYCARYSKYGHFDVWGTGTAVTVSS
VL: QAVVTQESALTTSPGETVTLTCRSSTGAVTTSNYANWVQEKPDHLFTGLIGGTYNRVPGVPARFSGSLIGDKAALTITGAQTEDEAIYFCALWYSNHFWVFGGGTKLTVLG
notes: as for B1

For the first assay, the target named is T1, human CD22-ECD-His protein (human, UniProt P20273 20-687).
T1 construct: Made in house in HEK293E; also called hCD22-ECD-His; recombinant human CD22-ECD His protein; not shown: His tag
T1 sequence: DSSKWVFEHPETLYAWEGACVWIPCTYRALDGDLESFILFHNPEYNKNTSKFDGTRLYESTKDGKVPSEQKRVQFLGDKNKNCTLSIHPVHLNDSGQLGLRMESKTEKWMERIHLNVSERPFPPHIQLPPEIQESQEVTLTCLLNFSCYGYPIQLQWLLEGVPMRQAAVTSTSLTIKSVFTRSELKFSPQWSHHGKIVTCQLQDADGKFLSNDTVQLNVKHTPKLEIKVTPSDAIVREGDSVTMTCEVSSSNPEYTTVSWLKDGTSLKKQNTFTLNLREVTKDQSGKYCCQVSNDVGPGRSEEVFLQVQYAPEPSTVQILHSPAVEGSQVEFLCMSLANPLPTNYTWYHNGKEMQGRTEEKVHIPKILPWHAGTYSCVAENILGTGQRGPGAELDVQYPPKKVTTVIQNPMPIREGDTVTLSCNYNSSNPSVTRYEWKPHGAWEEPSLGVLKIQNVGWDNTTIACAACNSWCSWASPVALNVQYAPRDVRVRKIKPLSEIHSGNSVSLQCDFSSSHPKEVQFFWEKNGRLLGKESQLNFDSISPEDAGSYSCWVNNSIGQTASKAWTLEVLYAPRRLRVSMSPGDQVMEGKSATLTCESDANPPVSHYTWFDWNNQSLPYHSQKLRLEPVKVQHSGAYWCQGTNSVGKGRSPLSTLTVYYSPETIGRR
The assay is described as follows: ELISA, Ab 10.00 nM. The essentials: (§1)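 Coat: CD22-ECD-His 2 μg/mL PBS, 4 °C o/n. Block PBS/2% BSA 2 h RT. Ab 2 h 37 °C; HRP 2° 2 h 37 °C; TMB 30 min RT, 1.0 N HCl stop.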
On to B1, for which the OD450 was 2.03 OD450.

For the molecule B2, the OD450 was 2.08 OD450.

The molecule B3 came in with an OD450 of 2 OD450.

Take B4: the OD450 came out at 2.64 OD450.

As for B5, the OD450 was determined as 2.55 OD450.

In turn, B6 yielded an OD450 of 1.84 OD450.

The target of another assay is T1, human CD22-ECD-His protein. The assay is described as follows: ELISA, Ab 0.01 nM. In a few lines:
as §1
For orientation: ELISA stands for enzyme-linked immunosorbent assay.
In turn, B1 yielded an OD450 of 1.56 OD450.

Molecule B2 came in with an OD450 of 1.55 OD450.

For the molecule B3, the OD450 came out at 1.7 OD450.

Consider B4, for which the OD450 stood at 1.66 OD450.

B5 registered an OD450 of 1.75 OD450.

Take B6: the OD450 was determined as 1.29 OD450.
